Measured values from the nanobody polyreactivity screen of Harvey et al. (2022).

Test: yeast display, Sf9 membrane polyspecificity reagent, FACS + sequencing; frameworks hold sequencing errors
Summary of the method: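 A synthetic nanobody library was expressed on Saccharomyces cerevisiae BJ5465 by galactose induction for 36–48 hours. The library was stained for 1 hour at 4 °C with 10% biotinylated, detergent-solubilized Sf9 membrane reagent and enriched with streptavidin microbeads before FACS. Low and high (top ~1%) gates were set on anti-HA fluorescence for expression and streptavidin fluorescence for reagent binding, and each polyreactivity label reflects the gate of origin.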

Sequence | polyreactivity (PSR sort gate)
QVQLVESGGGLVQAGGSLRLSCAAYGRIFTINAMGWYRQAPGKERELVASIRSTGGSTYYADSVKGRFTISRDNAKNTVYLQMNSLKPEDTAVYYCAADGGVAWGYGYWGQGTQVTVSS | low polyreactivity
QVQLVESGGGLVQAGGSLRLSCAASGRTFAYNAMGWYRQAPGKERELVADITWSGDSTYYADSVKGRFTISRDNAKNTVYLQMNSLKPEDTAVYYCAADYFGGPSYEFDYWGQGTQVTVSS | low polyreactivity
QVQHEESGGGLVQAGGSLRLSCAASGSIFYDNGMGWYRPAPGKERELVAAISRGGTTNYADSVKGRFTISRDKAKNTVYFQMNSLKPEDTAVYYCNADTRFTYWGSWYDYWGQGTQVTVSS | low polyreactivity
QVQIVESGGGLVQAGGSLRLSCAASGFIFYYYDMGWYRQAPWKERELVAVLTESGSSTYYADSVKGRFTITRDNAKNNVYLQMNSLKPEDTAVYYCAADGRASVGGLGDDYWGQGTQVTVSS | low polyreactivity
QVQLEESGGGLVQAVRSLRLSCAASGSTFDYYAMRWFRQAPWKEREFVAAISVSGGRTYDADSVKGRFTISRDNAKTTVYLQMNSQKPEDTAVSYCAAVQWYLPSFRYYYRGQGTQVTVSS | high polyreactivity
QVQLVESGGGLVQAGGSLRLSCAASGRIFDLYTMGWYRQAPGKERELVAAIRWSDGSTYYADSVTGRFTISRDNAKNTVYLQMNSLKPEDTAVYYCAADTRTSYYNDDYDYWGQGTQVTVSS | low polyreactivity
QVQLVESGGGLVQAGGSLRLSCAASGLTLTPYVMGWYRQAPGKEREFVAAITYTGGRTYYADSVKGRFTISRDNAKNTVYLKMNSLKPEDTAVYDCNKGYYQTWPRYYSWGQGTQVTVSS | high polyreactivity
QVQLVESGGGLVQAGGSLRLSCAASGITFLDNVMGWYRQAPGKERELVADINSIGTSTSYADSVKGRFTISRDNAKNTVYLQMNSLKPEDTAVYYCAADTGLEDYDYWGQGTQVTVSS | low polyreactivity
QVQLVESGGGLVQAGGSLRLSCAASGRTFYVYTMGWYRQAPGKERELVAANTSGGSTNYADSVKGRFTISRDNAKNTVYLQMNSLKPEDTAVYYCAARVSTVFKRYYYWGQGTQVTVSS | high polyreactivity
QVQLVESGGGLVQAGGSLRLSCAASGFIFYYYAMGWYRQAPGKERELVARISRVGSTYYADSVKGRFTISRDNAKNTVYLQINSLKPEDTAVYYCAKVSIARIKTRYNYWGQATQVTVSS | high polyreactivity
QVQLVESGGGLVQAGGSLRLSCAASGFTFYSYAMGWYRQAPGKERELVAAISRSGGSTRYADSVKGRFTISRDNAKNTVYLQMNSLKPEDTAVYYCNAGKYRAYDYWGQGTQVTVSS | high polyreactivity
QVQLVESGGGLVQAGGSLRLSCAASGRTFYKYGMGWYRQAPGKERELVASISSGGNTYYADSVKGRFTISRDNAKNTVYLQMNSLKPEDTAVYYCNAGYWAKFDYWGQGTQVTVSS | high polyreactivity
HVQLVESGGGLVQAAGSLRLSCAASGRIFSAYAMGWYRQAPGKEREFVAAITQSGGSTYYAESVKGRFTISRDNAKNTVYLQMNSLKPEDTAVYYCAAGDAYYTEALPFGEYDYWGQGTQVTVSS | low polyreactivity
QVQLVESGGGLVQAGGSLRLSCAASGFIFRLYTMGGYRQAPGKERELVAAISWSGGRTYYADSVKGRFTISRDNAKNTVYLQMNSLKPEDTAVYYCAKDLYLHTYYAYPYRFGSGYYWGQGTQVTVSS | low polyreactivity
QVQLVESGGGLVQAGGSLRLSCAASGRTFFVYAMGWYRQAPGKVRELVAAISNTGGRTYYADSVKGRFTISRDNAKNTVYLQMNSLKPEDTAVYYCAAPYSGPYRSYEYYWGQGTQVTVSS | low polyreactivity
QVQLVESGGGLVQAGGSLRLSSAASGFTFVINDMGWYRQAPGKEMELVADITSGGDTYYADSVKGRFTISRDNAKNTVYLQMNSLKPEDTAVYYCAADIYPDWIYLLYGYWGQGTQGTVSS | low polyreactivity

Sequence | polyreactivity (PSR sort gate)
QVQLVESGGGLVQAGGSLRLSCAASGRIFAGYAMGWYRQAPGKERELVASIRSSGSTYYADSVKGRFTISRDNAKNTVYLQMNSLKPEDTAVYYCNAVPRRRRYSRLGYWGQGTQVTVSS | high polyreactivity
QVQLVESGGRLVQAGGSLRLSCAASGFIFRKYAMGWYRQAHGKVRELVAGIDWSGCRTYYADSVKGRFTISRDNAKNTVYLQMNSLKPEDTAVYYCNSVFRARPDYDYWGVGTQVTVSS | high polyreactivity
QVQLEETGGGLVQAGGSLRLSCAASGSIFHYNAMGWYRQAPGKEREFVAAITGGGGTYYADSVKGRCTISRDNAKNTVYFQMNSLKPEDTGVYYCAAQSRTSFRFNYWGQVTQVTVSS | high polyreactivity
QVQLQESGGGLVQAGGSLRLRCAASGYISAGRQMGWYRQGPGKEREFVATINGGATTNYADSVKGRFTISRDNAKNSVYLQMNSLKPEDTAVYYCAVRTYIYDIHRYWGQGTQVTVSS | high polyreactivity
QVQLVESGGGLVQAGGSLRLSCAASGFIFWSYAMGWYRQAPGKERELVAAISWSGGRTYYADSVKGRFTISRDNAKNTVYLQMNSLKPEDTAVYYCAAVIRYGSQYPALDYWGQGTQVTVSS | high polyreactivity
QVQLVESGGGLVQAGGSLRLSCAASGSIFVLYAMGWYRQAPGKERELVAAINYDGASTYYADSVKGRFTNSRDNAKNTVYLQMISLKREDTAVYYCAASWQFNIDVQLYLFEYWGQGTQVTVSS | low polyreactivity
QVQLVESGGGLVQAGGSLRLSCAASGSTFTPNAMGWYRQAPGKERELVAAIRYTGVGTYYADSVKGRFTISRDNAKNTVYLQMNSLKPEDTAVYYCNRVSRYYNYDYWGQGTQVTVSS | high polyreactivity
QVQLVESAGGLVQAGGSLRISCAASGRTFFKYAMGWYSQAPGKERELVAAITGRGGSTYADSVKGRFTISRDNAKNTVYLQINSLKPEDTSVFYCAKVYQRGAQYYYYKYDYWGQGTQVTVSS | high polyreactivity
QLQLEESGGGLVQAGGTLRISCEASGSTFRPYAMGAYRKAPGQEREMVARITGSGDSTYYADSVKGRFTISRDNAQNTVYLQMNSLKPEDNAVYYCARDFDYSLSGFEYWGQGTQVTVSS | low polyreactivity
QVQLVESGGGLVQAGGSLRLSCAASGFTFPVYAMGWYRQAPGKERELVAAISRRGGRTYYADSVKGRFTISRDNAKNTVYLQMNSLKPEDTAVYYCAAQSVPYAYRLASYDYWGQGTQVTVSS | high polyreactivity
QVQLVESGGGLVQAGGSLRLSCAASGRTFVFYAMGWYRQAPGKERELVAAITSSGGRTYYADSVKGRFTISRDNAKNTVYLQMNSLKPEDTAFYYCAAPYYPYKYDYWGQGTQVTVSS | low polyreactivity
QVQLVESAGGLVQAGGSLRLSCAASVSTIAPNAMGWYRQAPGKERELVASIRRGGSTHYADSVKGSFTISRDNAKNTVYLQMNSLKPEDTAVYYCAKDVWRHYLNLYDYWGQGTQVTLSS | low polyreactivity
QVQLVESGGGLVQAGGSLRLSCAASGLTFEVYAMGWYRQAPGKERELVAAISSGGGSTYYADSVKGRFTISRDNGKNTVYLQMNSLKPEDTAVYYCNADALIAAYKYFPYTYRFNYWGQGTQVTVSS | low polyreactivity
QVQLVESGGGLVQAGGSLRLSCAASGLTFSIYAMGWYRQAPGKERELVAAISSTGSTNYADSVKGRFTISRDNAKNTVYLQMNSLKPEDTAVYYCAAELQPSPVGGIIQYGFDYWGQGTQVTVSS | low polyreactivity
QVQLVESGGGLVQAGGSLRLSCAASGRTFTFKAMGWYRQAPGKERELVAAMTSTGSTSYADSVKGRFTISRDNAKNTVYLQMNSLKPEDTAVYYCAKGYVIPYVHHVRPYGGEYLGQGTQVTVSS | low polyreactivity
